Square brackets hold non-standard residues; d marks the D form.

Usually Kd stands for the concentration at which binding is half-saturated.

For assay [1], the target named is CP-CNDS, fluorescein-labelled (mixture of DCP1 and DCP2, mass ratio 2:3). As to the kind of experiment: fluorescence polarisation. On the technique in general: In fluorescence polarisation assays a small probe gives low polarisation when free and higher when bound to something large.
For another assay, the target named is T1, lipase (UniProt P16233 17-465).
T1 sequence (looked up): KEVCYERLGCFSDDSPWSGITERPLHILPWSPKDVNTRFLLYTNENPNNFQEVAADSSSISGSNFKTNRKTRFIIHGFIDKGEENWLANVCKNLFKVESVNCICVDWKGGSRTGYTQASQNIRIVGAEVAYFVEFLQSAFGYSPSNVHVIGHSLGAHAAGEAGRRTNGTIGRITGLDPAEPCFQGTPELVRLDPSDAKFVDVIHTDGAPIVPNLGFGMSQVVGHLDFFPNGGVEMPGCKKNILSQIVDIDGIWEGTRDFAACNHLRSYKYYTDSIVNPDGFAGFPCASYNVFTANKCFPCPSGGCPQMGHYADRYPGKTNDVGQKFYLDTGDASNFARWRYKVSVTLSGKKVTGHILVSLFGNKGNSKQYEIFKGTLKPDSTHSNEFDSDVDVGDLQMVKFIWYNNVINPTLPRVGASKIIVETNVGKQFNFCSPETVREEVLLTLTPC

The target in another assay is T2, trypsin (UniProt P35030 81-304).
T2 sequence (looked up): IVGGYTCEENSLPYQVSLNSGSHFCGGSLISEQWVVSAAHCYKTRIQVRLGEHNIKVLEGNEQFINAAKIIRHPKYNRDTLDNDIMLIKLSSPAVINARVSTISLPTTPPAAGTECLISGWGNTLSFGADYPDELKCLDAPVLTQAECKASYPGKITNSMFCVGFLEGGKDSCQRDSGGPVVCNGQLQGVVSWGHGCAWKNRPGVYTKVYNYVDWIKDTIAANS

Turning to chymotrypsin (enzyme), the Kd in the assay with Ac-(rada)4-NH2 came to 227 nM.

B1: trypsin (enzyme)
chain: T2 sequence (looked up)
Consider B1, for which, in assay [1], the equilibrium dissociation constant (Kd) worked out at 102 nM.
Consider Ac-[dR][dA][dD][dA][dR][dA][dD][dA][dR][dA][dD][dA][dR][dA][dD][dA]-NH2 [Ac-(rada)4-NH2], for which the values for the equilibrium dissociation constant (Kd) with lipase and with trypsin were roughly 452 nM and roughly 342 nM, respectively.

B2: lipase (enzyme)
chain: T1 sequence (looked up)
Turning to B2, in assay [1], the Kd amounted to 251 nM.
